Measurements taken from the supplement of paper PMC9732359.
± gives the uncertainty stated by the source.

Assay: protein stability index of a GFP-peptide fusion (yeast GPS) (PSI 1-4); higher = more stable; sorted into four equal gates, so the index is relative within each strain
Summary of the method: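 For each peptide, the protein stability index sums the read frequency in every gate after multiplying it by the gate number. Read frequencies came from plasmids that were PCR-amplified from each gate and Illumina-sequenced, with reads assigned to strains by barcodes. The gates were four equal bins of GFP/Cherry fluorescence ratio applied to mid-log yeast in leucine-free medium carrying a pooled library of tiled 17-residue yeast protein peptides fused downstream of GFP on a Cherry-expressing plasmid.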

Row | Sequence | protein stability index (doa10∆) | protein stability index (pdr5∆) | protein stability index (san1∆) | protein stability index (ubr1∆)
1 | KNATEELLRLANEQLKL [CSN12] | 3 ± 0.071 | 2.93 ± 0.058 | 2.89 ± 0.077 | 2.8 ± 0.094
2 | AEKELEAEIECFDSTTG [RRP40] | 3.21 ± 0.17 | 3.06 ± 0.14 | 3.05 ± 0.1 | 2.66 ± 0.14
3 | SFSLTVSKEQFLKDADV [YJL039C/NUP192] | 1.47 ± 0.041 | 1.45 ± 0.056 | 1.54 ± 0.11 | 1.64 ± 0.045
4 | FKNMGNTCYLNATLQAL [UBP6] | 1.8 ± 0.083 | 1.92 ± 0.083 | 1.55 ± 0.12 | 1.83 ± 0.071
5 | VDLLQFPWLNAIKYRPT [POP3] | 2.33 ± 0.07 | 2.42 ± 0.091 | 2.36 ± 0.15 | 1.84 ± 0.11
6 | KEEFIMMVNISVLISIP [PCI8] | 1.43 ± 0.037 | 1.33 ± 0.033 | 1.57 ± 0.074 | 1.36 ± 0.031
7 | DFIKFDQIAVCEISGSI [BRN1] | 2.32 ± 0.14 | 2.4 ± 0.12 | 2.12 ± 0.14 | 2.82 ± 0.076
8 | IGWCKEDPKRRADTMDF [YJL039C/NUP192] | 3.16 ± 0.21 | 3.56 ± 0.11 | 3.47 ± 0.13 | 3.39 ± 0.12
9 | KFPETSYPILNESSTFL [SIN4] | 2.47 ± 0.04 | 2.71 ± 0.034 | 2.58 ± 0.042 | 2.64 ± 0.032
10 | KAANFIQNQSPQFNSPY [SWI1] | 1.99 ± 0.061 | 1.71 ± 0.046 | 2.37 ± 0.065 | 2.42 ± 0.058
11 | SLQDNSAAINNEDARAI [RPN4] | 3.12 ± 0.078 | 3.19 ± 0.057 | 2.94 ± 0.055 | 3.18 ± 0.05
12 | QRVRNMRELGLIQSTEF [YOR098C/NUP1] | 2.78 ± 0.12 | 2.03 ± 0.1 | 2.84 ± 0.26 | 2.22 ± 0.12
13 | RDGVLTVTLNKNREVVQ [RRP45] | 2.71 ± 0.11 | 2.93 ± 0.11 | 2.81 ± 0.08 | 2.73 ± 0.088
14 | NLTPANILNMSMNNDFQ [PGD1] | 2.86 ± 0.11 | 3.22 ± 0.091 | 3.01 ± 0.068 | 2.89 ± 0.052
15 | RRMAFKPFGSAKSDETK [YLR335W/NUP2] | 2.75 ± 0.073 | 2.74 ± 0.063 | 2.88 ± 0.058 | 2.08 ± 0.054
16 | QQLLPAPQLFPYGSFHQ [DSN1] | 2.72 ± 0.09 | 3.01 ± 0.1 | 2.72 ± 0.072 | 3.04 ± 0.08
17 | IPGMSNMMNQVGEEETS [SRP54] | – | – | 2.14 ± 0.29 | –
18 | SAIEHTTLKSVTIASEI [RPO21] | 2.54 ± 0.085 | 2.39 ± 0.077 | 2.57 ± 0.078 | 2.16 ± 0.045
19 | TAKKDMSSTTPKLESVK [SNF12] | 3.31 ± 0.056 | 3.35 ± 0.05 | 3.1 ± 0.042 | 3.27 ± 0.04
20 | ALPRKLRRRTASHNVRR [POP1] | 2.91 ± 0.058 | 3.06 ± 0.06 | 2.79 ± 0.056 | 2.74 ± 0.039

Row | Sequence | protein stability index (doa10∆) | protein stability index (pdr5∆) | protein stability index (san1∆) | protein stability index (ubr1∆)
21 | KNGNEYNEFLYSKAGRE [QCR8] | 2.77 ± 0.064 | 3 ± 0.081 | 2.77 ± 0.06 | 2.75 ± 0.05
22 | LALGCHFQDQKNKKIEV [POP7] | 2.65 ± 0.18 | 2.97 ± 0.16 | 2.92 ± 0.12 | 2.29 ± 0.11
23 | ALRLSMEEEQQRQERLR [RPN10] | 3.33 ± 0.16 | 3.06 ± 0.26 | 3.36 ± 0.065 | 3.38 ± 0.11
24 | HTQANEPNSAKKIRFLQ [RGR1] | 2.98 ± 0.24 | 3.51 ± 0.11 | 3.12 ± 0.22 | 3.33 ± 0.18
25 | VPGMPAPIKKIIERYIK [PRP8] | 3.37 ± 0.24 | 3.23 ± 0.13 | 2.95 ± 0.11 | 3.16 ± 0.13
26 | LASSFVNGFLNLGYCND [RPN1] | 3.2 ± 0.1 | 3.33 ± 0.097 | 3.27 ± 0.049 | 3.17 ± 0.082
27 | IRKSETSGRYASYRICM [RPB5] | 2.57 ± 0.088 | 2.89 ± 0.063 | 2.9 ± 0.072 | 2.97 ± 0.086
28 | KKLDDKPSLVDVHLLES [RPN6] | 1.1 ± 0.12 | 1.29 ± 0.14 | – | –
29 | VAAASKILSNLVYQYKG [PRE2] | 2.62 ± 0.088 | 2.5 ± 0.056 | 2.54 ± 0.078 | 2.49 ± 0.051
30 | YQSPTIFKIVQSRLMST [MED6] | 1.71 ± 0.1 | 1.59 ± 0.13 | – | 1.96 ± 0.094
31 | DYNFKYGIPLEFYNEMH [PRP8] | 2.98 ± 0.08 | 3.08 ± 0.091 | 1.78 ± 0.082 | 3.15 ± 0.083
32 | LRVEHIKHSKCRQEFLE [RPL21A] | 1.59 ± 0.21 | 2.43 ± 0.16 | 1.17 ± 0.18 | 1.31 ± 0.11
33 | TAKRKSRKRKPKSASNT [IRR1] | 2.97 ± 0.12 | 3.21 ± 0.13 | 2.6 ± 0.26 | 3.08 ± 0.055
34 | PGTVLILLAGRFRGKRV [RPL6A] | 1.61 ± 0.066 | 1.83 ± 0.069 | 1.66 ± 0.11 | 2.19 ± 0.073
35 | RGEIREIEQVCKQVHDK [MED7] | 3.06 ± 0.077 | 3.27 ± 0.046 | 2.8 ± 0.062 | 2.87 ± 0.073
36 | SSHQRVFKLSTNLISKI [SWP82] | 2.08 ± 0.073 | 1.97 ± 0.057 | 1.52 ± 0.11 | 1.93 ± 0.048
37 | AFNRFMAESLVDLEEVM [SSN8] | 1.57 ± 0.068 | 2.4 ± 0.078 | 2.36 ± 0.17 | 1.62 ± 0.059
38 | PWNDDYPFLLSFLGEAK [YML103C/NUP188] | 1.42 ± 0.047 | 1.6 ± 0.061 | 1.66 ± 0.088 | 1.98 ± 0.046
39 | VLGNSRGVDAGKGNTFE [RPN14] | 2.73 ± 0.25 | 3.01 ± 0.17 | 3.66 ± 0.11 | 3.3 ± 0.12
40 | KSVRILKNKAEYLKNCP [RPC40] | 3.13 ± 0.066 | 3.19 ± 0.064 | 3.12 ± 0.049 | 3.15 ± 0.046
